# Assay results from patent US20240325562A1 (LINXIS B V, published 2024).
# Key:
# [1] = target: T1, recombinant hPDGFRB ectodomain (human, UniProt P09619 33-532); experiment: competition ELISA on human PDGFRB ECD, IRDye800-SP26P as reporter and unconjugated SP26P as competitor
# T1 construct: extracellular domain; also called hPDGFRB-ECD; human PDGFRB ECD
# human IGF2R on cells [2] = target: T2, human IGF2R on cells (human, UniProt P11717 41-2491); experiment: cell-based or functional assay
# rat IGF2R on cells [3] = target: T3, rat IGF2R on cells (rat, UniProt A0A8I6GLL6 43-2479); experiment: cell-based or functional assay
# [4] = target: T4, recombinant human extracellular domain of IGF2R (human, UniProt P11717 41-2304); experiment: direct binding assay of the Alexa Fluor 647 conjugate on hIGF2R-ECD, one-site specific binding fit
# T4 construct: extracellular domain; Recombinant, immobilized on plates; also called hIGF2R-ECD; human IGF2R ectodomain (ECD)
# Experimental: (§1) These conjugates were then subjected to direct binding assays on immobilized hIGF2R-ECD, meaning that plates were read out immediately after washing, without additional detection steps. […] For detailed analysis, binding parameters KD and Bₘₐₓ were calculated in Graphpad (version 8.3), using one-site specific binding analysis (FIG. 8D).
# Based on their high affinity and binding to non-overlapping receptor epitopes, VHHs 13F11 and 13E8 were selected for the design of biparatopic and bivalent VHH constructs. Two VHHs were fused with a flexible linker, consisting of three Gly-Gly-Gly-Gly-Ser repeats (FIG. 8A). The sequences were codon optimized for expression in E. coli and obtained as synthesized DNA fragments from GeneArt. The DNA fragments encoding VHHs were cloned into a vector pET28-based vector introducing a C-terminal free cysteine for site-directed conjugation and His6 tag for IMAC purification (FIG. 8A). The VHH constructs were produced and purified as described in example 4. […] In a similar binding assay, IR dye 800 (IRD800) conjugates were prepared (as outlined in example 10.2) of the monomeric VHHs 13F11 and 13E8, the biparatopic VHH construct 13F11-13E8, the reciprocal biparatopic construct 13E8-13F11, the bivalent VHH construct 13F11-13F11, and the non-binding (control-) VHH R2. Conjugated constructs were then subjected to binding assay as described above.
# rat IGF2R on cells [5] = target: T3, rat IGF2R on cells; experiment: binding assay on SCC cells transgenically expressing rat IGF2R
# Experimental: (§2) To examine whether 13F11-13E8 is cross-reactive against rodent IGF2R, the construct as well as its corresponding monomeric VHHs were conjugated to IRDye800CW (F11E8-IRD800, conjugation method as described in example 10.2) and the binding affinity was determined using a binding assay on SCC cells that transgenically expressed either murine IGF2R (mIGF2R), rIGF2R, or hIGF2R (FIGS. 12A-D).
# human IGF2R on cells [6] = target: T2, human IGF2R on cells; experiment: binding assay on SCC cells transgenically expressing human IGF2R
# Experimental: as §2
# murine IGF2R on cells = target: T5, murine IGF2R on cells (murine, UniProt Q07113 36-2483); experiment: binding assay on SCC cells transgenically expressing murine IGF2R
# T5 construct: whole, on cells; also called mIGF2R
# Experimental: as §2
# [7] = target: T4, recombinant human extracellular domain …; experiment: competition assay on immobilized hIGF2R-ECD, competitor for 13F11-A647
# Experimental: Biparatopic VHH constructs contain two VHH which bind to a different epitope, i.e. which are non-competitive binders. To identify (a) pair(s) of non-competitive binders, competition assays were performed. In the example shown, an Alexa fluor-conjugate of the high affine VHH 13F11 was used as the reporter VHH (13F11-A647, see example 10.2). In the assay, a non-saturating amount (10 nM) of 13F11-A647 was incubated with immobilized hIGF2R-ECD in the presence or absence of 250 nM unconjugated competitor VHH to allow competition to take place.
# [8] = target: T4, recombinant human extracellular domain …; experiment: direct binding assay of the fluorescent conjugate on immobilized hIGF2R-ECD, one-site specific binding fit
# Experimental: as §1
# [9] = target: T4, recombinant human extracellular domain …; experiment: binding assay on immobilized hIGF2R-ECD, detection with anti-VHH antibody
# Experimental: The 15 unique hIGF2R-binding VHH (Example 2.1, FIG. 2) were produced and purified as described in examples 3 and 4. The apparent affinities were determined through binding assay on immobilized hIGF2R-ECD. Briefly, three-fold serial dilution series, starting from 1 μM, of each VHH were plated onto hIGF2R-ECD coated plates. VHH were allowed to bind for two hours after which plates were washed. Then, bound VHH was detected using a VHH-specific IgG antibody, followed by an IRD800CW-conjugated IgG-specific antibody. Plates were read out by fluorimetry.
# rat serum albumin = target: T6, rat serum albumin (rat, UniProt P02770 25-608); experiment: binding assay of the IRDye800 conjugate on serum albumin
# T6 construct: also called RSA
# T6 sequence (P02770 25-608 limits assumed): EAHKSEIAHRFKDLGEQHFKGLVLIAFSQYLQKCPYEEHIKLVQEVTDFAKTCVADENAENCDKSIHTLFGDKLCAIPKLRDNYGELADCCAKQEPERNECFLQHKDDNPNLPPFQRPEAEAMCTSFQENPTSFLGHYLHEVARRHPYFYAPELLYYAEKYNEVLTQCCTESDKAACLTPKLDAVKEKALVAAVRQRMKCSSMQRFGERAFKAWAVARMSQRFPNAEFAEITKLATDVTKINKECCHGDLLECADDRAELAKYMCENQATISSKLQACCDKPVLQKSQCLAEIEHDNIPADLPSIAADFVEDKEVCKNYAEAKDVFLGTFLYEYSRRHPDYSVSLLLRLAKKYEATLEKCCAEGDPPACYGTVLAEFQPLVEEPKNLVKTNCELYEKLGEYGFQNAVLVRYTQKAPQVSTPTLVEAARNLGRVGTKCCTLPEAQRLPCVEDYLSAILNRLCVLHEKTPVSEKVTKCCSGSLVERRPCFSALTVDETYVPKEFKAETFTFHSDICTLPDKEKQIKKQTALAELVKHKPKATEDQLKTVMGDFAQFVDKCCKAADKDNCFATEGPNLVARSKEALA
# mouse serum albumin = target: T7, mouse serum albumin (mouse, UniProt P07724 25-608); experiment: as above
# T7 construct: also called MSA
# T7 sequence (P07724 25-608 limits assumed): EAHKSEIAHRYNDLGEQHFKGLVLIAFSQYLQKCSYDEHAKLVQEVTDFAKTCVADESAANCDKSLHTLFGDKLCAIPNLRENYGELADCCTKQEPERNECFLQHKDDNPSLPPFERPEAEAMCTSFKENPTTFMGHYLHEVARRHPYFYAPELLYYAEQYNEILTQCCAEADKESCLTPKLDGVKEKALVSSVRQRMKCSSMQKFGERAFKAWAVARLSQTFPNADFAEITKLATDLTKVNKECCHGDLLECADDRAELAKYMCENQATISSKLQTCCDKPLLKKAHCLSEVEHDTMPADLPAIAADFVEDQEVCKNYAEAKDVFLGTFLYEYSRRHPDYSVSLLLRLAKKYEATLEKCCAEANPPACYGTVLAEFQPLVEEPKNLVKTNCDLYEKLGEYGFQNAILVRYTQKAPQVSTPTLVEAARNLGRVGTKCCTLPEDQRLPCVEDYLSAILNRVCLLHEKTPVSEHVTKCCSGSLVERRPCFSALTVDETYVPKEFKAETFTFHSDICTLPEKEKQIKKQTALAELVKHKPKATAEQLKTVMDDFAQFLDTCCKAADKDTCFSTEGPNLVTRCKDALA
# human serum albumin = target: T8, human serum albumin (human, UniProt P02768 25-609); experiment: as above
# T8 construct: also called HSA
# [10] = target: T9, full-length human PDGFRB on cells (human, UniProt P09619 33-1106); experiment: binding assay on cells transgenically expressing human PDGFRB, FIG. 15C
# T9 construct: whole, on cells; also called hPDGFRB; SCC-hPDGFRB
# T9 sequence (P09619 33-1106): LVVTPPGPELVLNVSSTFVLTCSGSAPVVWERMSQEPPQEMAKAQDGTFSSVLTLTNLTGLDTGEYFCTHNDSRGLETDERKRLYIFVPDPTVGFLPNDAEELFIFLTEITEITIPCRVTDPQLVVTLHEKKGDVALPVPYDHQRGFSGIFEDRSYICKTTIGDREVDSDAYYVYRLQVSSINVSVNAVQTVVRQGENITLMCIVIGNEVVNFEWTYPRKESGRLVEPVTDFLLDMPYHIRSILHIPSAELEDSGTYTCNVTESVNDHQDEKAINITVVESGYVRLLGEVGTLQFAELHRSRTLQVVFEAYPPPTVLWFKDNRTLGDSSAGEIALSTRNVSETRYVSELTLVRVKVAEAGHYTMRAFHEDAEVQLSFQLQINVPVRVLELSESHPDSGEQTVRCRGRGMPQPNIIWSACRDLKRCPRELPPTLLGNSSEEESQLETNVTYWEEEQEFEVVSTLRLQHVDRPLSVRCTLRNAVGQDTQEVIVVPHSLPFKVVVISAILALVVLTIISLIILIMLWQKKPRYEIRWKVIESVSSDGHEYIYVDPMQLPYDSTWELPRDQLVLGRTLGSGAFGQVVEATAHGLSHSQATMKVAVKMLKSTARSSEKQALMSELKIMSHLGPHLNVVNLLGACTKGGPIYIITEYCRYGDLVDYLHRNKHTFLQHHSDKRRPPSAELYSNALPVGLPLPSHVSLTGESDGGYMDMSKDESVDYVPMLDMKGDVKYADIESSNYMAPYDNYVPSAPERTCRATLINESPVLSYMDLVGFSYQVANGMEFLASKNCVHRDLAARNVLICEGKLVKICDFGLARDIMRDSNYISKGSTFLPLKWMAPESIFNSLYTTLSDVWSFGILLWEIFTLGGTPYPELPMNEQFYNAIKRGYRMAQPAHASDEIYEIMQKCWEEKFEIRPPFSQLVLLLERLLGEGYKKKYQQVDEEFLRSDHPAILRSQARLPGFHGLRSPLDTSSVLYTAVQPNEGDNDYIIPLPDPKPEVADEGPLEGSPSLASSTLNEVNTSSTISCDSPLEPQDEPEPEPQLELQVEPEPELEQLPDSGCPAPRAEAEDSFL
# T1 sequence (P09619 33-532): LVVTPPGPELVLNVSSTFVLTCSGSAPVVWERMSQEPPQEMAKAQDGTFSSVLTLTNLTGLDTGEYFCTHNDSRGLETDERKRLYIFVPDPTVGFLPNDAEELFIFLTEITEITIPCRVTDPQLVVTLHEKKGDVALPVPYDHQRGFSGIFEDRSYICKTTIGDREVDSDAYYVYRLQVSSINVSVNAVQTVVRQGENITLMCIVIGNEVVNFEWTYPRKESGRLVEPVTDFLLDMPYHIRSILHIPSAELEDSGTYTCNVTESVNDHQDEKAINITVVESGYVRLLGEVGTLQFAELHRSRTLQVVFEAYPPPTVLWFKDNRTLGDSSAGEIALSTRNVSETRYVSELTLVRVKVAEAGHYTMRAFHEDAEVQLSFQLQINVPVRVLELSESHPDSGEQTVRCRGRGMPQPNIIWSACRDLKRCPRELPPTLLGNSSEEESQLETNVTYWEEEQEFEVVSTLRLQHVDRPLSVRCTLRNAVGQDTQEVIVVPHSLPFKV
binder,measurement,setting,value
"SP26P (VHH, In the competition assay the reporter copy carried IRDye800 on the C-terminal cysteine, which is not in the letters., From libraries 3 and 4 (raised against rPDGFRB)) VHH: EVQLVESGGGLVQAGGSLRLSCAASGRSFSSSVMGWFRQTPGKEREFVAATRWTAASTHYADSVKGRFTISRDHAENAVFLQMNSLKPEDTAVYYCAAGNYLDTAQYRYNYWGQGTQVTVSS",binding result,[1],binds
"13E8-13F11-IRD800 (bispecific antibody, not shown: small tags and cut ends, IRDye 800CW coupled by maleimide to the C-terminal free cysteine, which is not in the letters) EVQLVESGGGLVQAGGSLRLSCAASRSISPMGWYRQAPGKQRELVAIMPSSGPPIYADSVQGRFTISRDNAKNTVYLQMNSLKPEDTAVYYCNVGGGYWGQGTQVTVSSGGGGSGGGGSGGGGSEVQLVESGGRLVQPGDSLRLSCAASGRTFSDNAMGWFRQAPGKERRFVAGISWAGGSTYYSDSVKGRFTISRDNAKNTVYLQMNSLKPEDTAVYYCAAGLRAWVQRMPKDYNYWGQGTQVTVSS","endocytic rate constant, ke",human IGF2R on cells [2],~1.5 min⁻¹
same,"endocytic rate constant, ke",rat IGF2R on cells [3],~0.7 min⁻¹
"13E8-13F11-A647 (bispecific antibody, Alexa Fluor 647 coupled by maleimide to the C-terminal free cysteine, which is not in the letters, Biparatopic tandem VHH, reciprocal order; not shown: C-terminal tail: free Cys, possible thrombin site and His6 tag) EVQLVESGGGLVQAGGSLRLSCAASRSISPMGWYRQAPGKQRELVAIMPSSGPPIYADSVQGRFTISRDNAKNTVYLQMNSLKPEDTAVYYCNVGGGYWGQGTQVTVSSGGGGSGGGGSGGGGSEVQLVESGGRLVQPGDSLRLSCAASGRTFSDNAMGWFRQAPGKERRFVAGISWAGGSTYYSDSVKGRFTISRDNAKNTVYLQMNSLKPEDTAVYYCAAGLRAWVQRMPKDYNYWGQGTQVTVSS",Kd,[4],2.5 nM
"13F11-13E8-IRD800 (bispecific antibody, IRDye 800CW coupled by maleimide to the C-terminal free cysteine, which is not in the letters, Biparatopic tandem VHH; also called F11E8-IRD800; IRDye800-conjugated 13F11-13E8 (F11E8); not shown: C-terminal tail: free Cys, possible thrombin site and His6 tag) EVQLVESGGRLVQPGDSLRLSCAASGRTFSDNAMGWFRQAPGKERRFVAGISWAGGSTYYSDSVKGRFTISRDNAKNTVYLQMNSLKPEDTAVYYCAAGLRAWVQRMPKDYNYWGQGTQVTVSSGGGGSGGGGSGGGGSEVQLVESGGGLVQAGGSLRLSCAASRSISPMGWYRQAPGKQRELVAIMPSSGPPIYADSVQGRFTISRDNAKNTVYLQMNSLKPEDTAVYYCNVGGGYWGQGTQVTVSS","endocytic rate constant, ke",human IGF2R on cells [2],~1.5 min⁻¹
same,"endocytic rate constant, ke",rat IGF2R on cells [3],~0.7 min⁻¹
same,Kd,rat IGF2R on cells [5],< 10 nM
same,Kd,human IGF2R on cells [6],< 10 nM
same,Kd,murine IGF2R on cells,< 10 nM
"13F11-13E8-A647 (bispecific antibody, Alexa Fluor 647 coupled by maleimide to the C-terminal free cysteine, which is not in the letters, Biparatopic tandem VHH; not shown: C-terminal tail: free Cys, possible thrombin site and His6 tag) EVQLVESGGRLVQPGDSLRLSCAASGRTFSDNAMGWFRQAPGKERRFVAGISWAGGSTYYSDSVKGRFTISRDNAKNTVYLQMNSLKPEDTAVYYCAAGLRAWVQRMPKDYNYWGQGTQVTVSSGGGGSGGGGSGGGGSEVQLVESGGGLVQAGGSLRLSCAASRSISPMGWYRQAPGKQRELVAIMPSSGPPIYADSVQGRFTISRDNAKNTVYLQMNSLKPEDTAVYYCNVGGGYWGQGTQVTVSS",Kd,[4],2.5 nM
"13G10 (VHH, On phage in the phage ELISA; purified from E. coli in the other assays) VHH: EVQLVESGGGLVQAGGSLRLSCAASGLTFSSYTMAWYRQAPGKEREVVAAISSGDSIYHEDSVQGRFIISRDNAKNTVYLQMNSLKAEDTAVYYCRANGPGTYWGQGTQVTVSS",binding result,[7],binds
"13C11 (VHH, On phage in the phage ELISA; purified from E. coli in the other assays) VHH: EVQLVESGGGLVQAGGSLRLSCAASGLTFSSYTMAWYRQAPGKEREVVAAISSGDSIYHEGSVQGRFIISRDNAKNTVYLQMNSLKAEDTAVYYCRANGPGTYWGQGTQVTVSS",binding result,[7],binds
"13F11-A647 (VHH, Alexa Fluor 647 is coupled by maleimide chemistry to the C-terminal free cysteine of the expression tail. The dye, that cysteine and the tag are not in the letters., Fluorescent conjugate of monomeric 13F11; also called labelled 13F11) VHH: EVQLVESGGRLVQPGDSLRLSCAASGRTFSDNAMGWFRQAPGKERRFVAGISWAGGSTYYSDSVKGRFTISRDNAKNTVYLQMNSLKPEDTAVYYCAAGLRAWVQRMPKDYNYWGQGTQVTVSS",Kd,[8],1 nM
"13F11 (VHH, On phage in the phage ELISA; purified from E. coli in the other assays; also called native 13F11; unconjugated 13F11) VHH: EVQLVESGGRLVQPGDSLRLSCAASGRTFSDNAMGWFRQAPGKERRFVAGISWAGGSTYYSDSVKGRFTISRDNAKNTVYLQMNSLKPEDTAVYYCAAGLRAWVQRMPKDYNYWGQGTQVTVSS",Kd,[9],0.23 nM
13F11-13E8-ABD-IRD800 (other) EVQLVESGGRLVQPGDSLRLSCAASGRTFSDNAMGWFRQAPGKERRFVAGISWAGGSTYYSDSVKGRFTISRDNAKNTVYLQMNSLKPEDTAVYYCAAGLRAWVQRMPKDYNYWGQGTQVTVSSGGGGSGGGGSGGGGSEVQLVESGGGLVQAGGSLRLSCAASRSISPMGWYRQAPGKQRELVAIMPSSGPPIYADSVQGRFTISRDNAKNTVYLQMNSLKPEDTAVYYCNVGGGYWGQGTQVTVSSLAEAKVLANRELDKYGVSDYYKNLINNAKTVEGVKALIDEILAALP,Kd,rat serum albumin,30 nM
same,Kd,mouse serum albumin,~200 nM
same,Kd,human serum albumin,~200 nM
"SP02P-SP26P (bispecific antibody, not shown: small tags and cut ends, also called SP02-SP26P) EVQLVESGGGLVQAGGSLRLSCAASESISSIEQMGWFRQAPGKQRALVAINTYGGRTVYTNSVEGRFTMSRDSAKNMVYLQMTSLEPEDTAVYYCYAQTTAWRGGVWGQGTQVTVSSGGGGSGGGGSGGGGSEVQLVESGGGLVQAGGSLRLSCAASGRSFSSSVMGWFRQTPGKEREFVAATRWTAASTHYADSVKGRFTISRDHAENAVFLQMNSLKPEDTAVYYCAAGNYLDTAQYRYNYWGQGTQVTVSS",Kd,[10],< 5 nM
